Source: publication PMC5466623

Biological target: genome-edited CXCR4 fused to Nluc (human (endogenous in HEK293FT)) (UniProt P61073)
UniProt P61073, sequence (P61073 whole entry, the tested form may be a part): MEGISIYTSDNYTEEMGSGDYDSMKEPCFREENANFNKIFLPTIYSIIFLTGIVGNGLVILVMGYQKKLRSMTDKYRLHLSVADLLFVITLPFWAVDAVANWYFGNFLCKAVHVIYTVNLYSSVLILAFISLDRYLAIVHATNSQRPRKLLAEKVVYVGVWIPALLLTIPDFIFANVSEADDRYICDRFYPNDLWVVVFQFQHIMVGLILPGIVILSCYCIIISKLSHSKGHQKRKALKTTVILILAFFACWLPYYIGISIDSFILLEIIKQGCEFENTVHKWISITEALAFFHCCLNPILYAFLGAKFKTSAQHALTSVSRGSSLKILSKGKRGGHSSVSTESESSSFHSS

inhibition of forskolin (5 µM)-mediated cAMP accumulation (HTRF) in HEK293FT cells expressing genome-edited CXCR4/Nluc: 8.6 pEC50
Substance: CXCL12 (from UniProt P48061 22-93) (ligand)
